T1: Pig Semaphorin3A-Sema Domain, TPP-20176 (pig, UniProt Q63548 21-569 (rat entry))
T1 construct: produced inhouse
T1 chain: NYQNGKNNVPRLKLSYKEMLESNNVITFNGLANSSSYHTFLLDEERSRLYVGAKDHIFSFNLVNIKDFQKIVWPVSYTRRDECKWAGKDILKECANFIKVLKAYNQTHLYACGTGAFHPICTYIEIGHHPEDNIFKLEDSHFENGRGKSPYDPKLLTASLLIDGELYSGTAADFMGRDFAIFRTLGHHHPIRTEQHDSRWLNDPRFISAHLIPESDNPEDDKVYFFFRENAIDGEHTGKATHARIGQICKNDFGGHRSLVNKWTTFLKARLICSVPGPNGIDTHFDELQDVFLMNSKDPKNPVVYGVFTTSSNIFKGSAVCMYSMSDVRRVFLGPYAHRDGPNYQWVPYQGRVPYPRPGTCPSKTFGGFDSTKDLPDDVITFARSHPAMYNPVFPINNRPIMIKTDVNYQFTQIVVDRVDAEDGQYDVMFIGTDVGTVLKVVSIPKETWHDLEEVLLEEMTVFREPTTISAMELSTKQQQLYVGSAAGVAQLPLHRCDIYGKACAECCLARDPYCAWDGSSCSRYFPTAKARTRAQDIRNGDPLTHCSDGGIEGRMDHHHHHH

T2: human wild-type Sema3A of SEQ ID NO: 600, expressed by HEK293 cells (human, UniProt Q14563 22-771, limits assumed)
T2 sequence: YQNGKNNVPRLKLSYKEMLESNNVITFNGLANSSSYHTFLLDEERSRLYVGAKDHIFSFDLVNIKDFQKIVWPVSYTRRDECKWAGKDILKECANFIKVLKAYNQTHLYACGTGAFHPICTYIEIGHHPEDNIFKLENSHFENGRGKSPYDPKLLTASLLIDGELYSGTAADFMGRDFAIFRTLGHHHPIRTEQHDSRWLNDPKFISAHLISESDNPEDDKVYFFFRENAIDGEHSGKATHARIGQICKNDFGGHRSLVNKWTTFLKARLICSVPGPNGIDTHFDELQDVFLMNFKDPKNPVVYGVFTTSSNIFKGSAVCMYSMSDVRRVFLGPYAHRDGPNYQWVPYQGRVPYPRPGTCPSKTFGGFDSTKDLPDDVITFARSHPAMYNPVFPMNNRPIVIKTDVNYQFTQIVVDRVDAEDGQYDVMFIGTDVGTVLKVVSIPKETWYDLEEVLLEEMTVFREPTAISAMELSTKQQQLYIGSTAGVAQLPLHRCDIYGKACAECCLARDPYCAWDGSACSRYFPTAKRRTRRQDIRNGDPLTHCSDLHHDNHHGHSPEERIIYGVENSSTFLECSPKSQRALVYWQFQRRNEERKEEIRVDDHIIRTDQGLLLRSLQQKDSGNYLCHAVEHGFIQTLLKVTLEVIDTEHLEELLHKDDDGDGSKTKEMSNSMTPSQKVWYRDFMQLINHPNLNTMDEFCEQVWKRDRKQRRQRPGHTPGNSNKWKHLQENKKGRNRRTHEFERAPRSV


Columns and labels:
[1] = target: Human Semaphorin3A-Fc (R&D Systems), TPP-13211 (human); test: cell-based or functional assay
[2] = target: T1, Pig Semaphorin3A-Sema Domain, TPP-20176; test: SPR, captured antibody, Sema3A domain analyte
Experimental: To assess the binding activity of anti-Sema3A antibodies binding assays were conducted using surface plasmon resonance (SPR). Binding assays were performed on a Biacore T200 instrument (Cytiva) at 25° C. using assay buffer HBS P+, 300 mM NaCl, 0.75 mM CaCl₂, 2.5 mM MgCl₂, 1 mg/ml BSA, 0.05% NaN₃. Antibodies were captured via anti-human Fc IgGs (“Human antibody capture kit”, Order No. BR100839, Cytiva) covalently amine coupled to a Series S CM5 sensor chip (Cytiva). The amine coupling was carried out according to the manufacturer's instructions using 1-ethyl-3-(3-dimethylaminopropyl) carbodiimide hydrochloride (EDC), N-hydroxysuccinimide (NHS) and ethanolamine HCl, pH 8.5 (“Amine Coupling Kit” BR-1000-50, Cytiva.). Human, mouse, cynomolgus, rat, dog and pig monovalent Sema3A domain were used as analytes in a concentration series from 0.024-3.125 nM in multi cycle kinetics mode. The sensor surface was regenerated with glycine pH 2.0 after each antigen injection. Obtained sensorgrams were double referenced (subtraction of reference flow cell signal and buffer injection) and were fitted to a 1:1 Langmuir binding model using the Biacore T200 Evaluation software obtaining the experimental fitted RMax value. To calculate the binding activity first the theoretical RMax needs to be calculated according to equation 1: […]
Binding activity was determined by dividing the experimental determined RMax by the theoretical calculated RMax according to equation 2: […]

[3] = target: T2, human wild-type Sema3A of SEQ ID NO: …; test: cell-based or functional assay
[4] = target: T3, Human Semaphorin3A-Fc (R&D Systems), TPP-13211 (human); test: competition ELISA on coated TPP-13211, competitor biotinylated TPP-15370
T3 construct: R&D Systems 1250-S3; also called recombinant human Sema3A-Fc chimera
Experimental: For screening in a competition ELISA setup, human Sema3a (TPP-13211) was coated onto 384-well plates (Greiner bio-one, 781077) with a concentration of 0.5 μg/ml in coating buffer (Carbonate-Basis pH 9.6, Candor 121125) over night at 10° C. After washing the plates 3 times with 50 μl PBS 0.05% Tween the plates were blocked with 50 μl Smart Block® (Candor 113500) for 1 h at 20° C. and washed again 3 times as described.
Subsequently, 20 μl of pre-mixed antibody solution was added to the plates and incubate for 18 h at 10° C. […] The total concentration of the added antibody solution was 0.25 μg/ml. During the incubation time the antibodies bound to the plates in a competitive manner as they compete for the same epitope on the human Sema3A protein.
After subsequent washing with 50 μl PBS 0.05% Tween for 3 times, 20 μl of a Streptavidin-HRP solution (R&D Systems, DY998, 1:200 in PBS 0.05% Tween 10% Smart Block) were added and incubated for 1 h and 20° C. followed by subsequent washing 3 times with 50 μl PBS 0.05% Tween and addition of 20 μl Amplex Red solution (Invitrogen A12222, 1:1000 in NaP-buffer 50 mM pH7.6 with 1:10000 of 30% H2O2). After a final incubation for 20 min at 20° C. the signal was determined using an emission wavelength of 595 nm and excitation of 530 nm.

[5] = target: T2, human wild-type Sema3A of SEQ ID NO: …; test: cell-based or functional assay; remark: listed apart in the source

T3 sequence (chain, as listed by the source limits assumed): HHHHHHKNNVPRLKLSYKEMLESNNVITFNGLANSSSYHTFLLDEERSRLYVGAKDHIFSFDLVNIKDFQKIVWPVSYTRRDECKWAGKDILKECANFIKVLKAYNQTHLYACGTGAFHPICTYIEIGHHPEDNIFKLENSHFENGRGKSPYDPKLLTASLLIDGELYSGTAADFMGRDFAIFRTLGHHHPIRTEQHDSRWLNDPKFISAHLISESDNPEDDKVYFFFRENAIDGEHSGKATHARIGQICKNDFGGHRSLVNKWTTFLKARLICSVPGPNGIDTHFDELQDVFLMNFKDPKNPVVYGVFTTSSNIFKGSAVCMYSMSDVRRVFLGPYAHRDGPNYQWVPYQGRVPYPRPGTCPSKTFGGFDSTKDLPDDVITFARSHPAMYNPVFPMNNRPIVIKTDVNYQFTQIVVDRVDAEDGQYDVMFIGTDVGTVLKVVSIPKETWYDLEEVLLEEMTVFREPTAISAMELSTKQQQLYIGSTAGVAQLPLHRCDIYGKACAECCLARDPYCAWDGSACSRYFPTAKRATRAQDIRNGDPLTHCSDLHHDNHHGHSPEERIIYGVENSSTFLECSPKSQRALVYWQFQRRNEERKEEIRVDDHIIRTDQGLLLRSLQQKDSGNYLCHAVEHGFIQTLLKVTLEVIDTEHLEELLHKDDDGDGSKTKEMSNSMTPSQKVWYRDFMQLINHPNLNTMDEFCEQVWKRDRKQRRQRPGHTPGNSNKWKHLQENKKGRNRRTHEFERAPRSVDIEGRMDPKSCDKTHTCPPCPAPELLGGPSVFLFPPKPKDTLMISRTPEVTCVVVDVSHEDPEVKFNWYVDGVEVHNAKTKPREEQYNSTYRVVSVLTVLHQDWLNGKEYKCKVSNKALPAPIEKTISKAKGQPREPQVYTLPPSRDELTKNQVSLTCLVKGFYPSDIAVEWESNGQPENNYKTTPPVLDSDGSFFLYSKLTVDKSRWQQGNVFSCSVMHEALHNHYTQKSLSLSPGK

Row | EC50 (nM), GCC assay [1] | Binding Activity [%] [2] | EC50 (pM), HUVEC repulsion assay [3] | VAL norm to TPP-9809 (1 to 1 ratio) [4] | VAL norm to TPP-9809 (1 to 5 ratio) [4] | EC50 (pM), HUVEC repulsion assay, second experiment [5] | Binder
1 |  |  | 123 pM | 0.3 | 0.16 |  | TPP-23375 (antibody, human IgG4 S228P, lambda, V domains shown) VH: EVQLLESGGGLVQPGGSLRLSCAASGFTFYSYAMSWVRQAPGKGLEWVSAIGYGGDTYYADSVKGRFTISRDNSKNTLYLQMNSLRAEDTAVYYCARRDDYTSRDAFDYWGQGTLVTVSS VL: not shown
2 |  |  |  | 0.27 | 0.08 |  | TPP-23345 (antibody, human IgG4 S228P, lambda, V domains shown) VH: EVQLLESGGGLVQPGGSLRLSCAASGFTFSSYAMSWVRQAPGKGLEWVSAIGYGGDTYYADSVKGRFTISRDNSKNTLYLQMNSLRAEDTAVYYCARRDDYTSRDAFDYWGQGTLVTVSS VL: not shown
3 |  |  |  | 0.22 | 0.13 |  | TPP-23346 (antibody, human IgG4 S228P, lambda, V domains shown) VH: EVQLLESGGGLVQPGGSLRLSCAASGFTFYSYAMLWVRQAPGKGLEWVSAIGTGGDTYYADSVKGRFTISRDNSKNTLYLQMNSLRAEDTAVYYCARRDDYTSRDAFDYWGQGTLVTVSS VL: not shown
4 |  |  | 180 pM | 0.35 | 0.2 |  | TPP-23373 (antibody, human IgG4 S228P, lambda, V domains shown) VH: EVQLLESGGGLVQPGGSLRLSCAASGFTFYSYAMSWVRQAPGKGLEWVSAIGYGGDTYYADSVKGRFTISRDNSKNTLYLQMNSLRAEDTAVYYCARRDDYTSRDAFDYWGQGTLVTVSS VL: not shown
5 | 2.19 nM |  | 77 pM | 0.19 | 0.08 |  | TPP-23374 (antibody, human IgG4 S228P, lambda, V domains shown) VH: EVQLLESGGGLVQPGGSLRLSCAASGFTFYSYAMSWVRQAPGKGLEWVSAIGYGGDTYYADSVKGRFTISRDNSKNTLYLQMNSLRAEDTAVYYCARRDDYTSRDAFDYWGQGTLVTVSS VL: not shown
6 |  |  |  | 0.3 | 0.16 |  | TPP-23347 (antibody, human IgG4 S228P, lambda, V domains shown) VH: EVQLLESGGGLVQPGGSLRLSCAASGFTFYSYAMLWVRQAPGKGLEWVSAIGTGGDTYYADSVKGRFTISRDNSKNTLYLQMNSLRAEDTAVYYCARRDDYTSRDAFDYWGQGTLVTVSS VL: not shown
7 |  | 107% |  |  |  | 104 pM | TPP-30788 (antibody, human IgG1, kappa, V domains shown, prior art, WO 2020/225400; also called BI clone I; Böhringer (BI) Clone I) VH: EVQLVESGGGLVQPGGSLRLSCAASGFTFSSYYMSWVRQAPGKGLEWVSTIIKSGGYAYYPDSVKDRFTISRDNSKNTLYLQMSSLRAEDTAVYYCVRGGQGAMDYWGQGTTVTVSS VL: EIVLTQSPATLSLSPGERATLSCRASQSIGDYLHWYQQKPGQAPRLLIKYASQSISGIPARFSGSGSGTDFTLTITSLEPEDFAVYYCQQGYSFPYTFGGGTKLEIKR

More lines, now with the values behind:

Row | Binder | EC50 (nM), GCC assay [1] | Binding Activity [%] [2] | EC50 (pM), HUVEC repulsion assay [3] | VAL norm to TPP-9809 (1 to 1 ratio) [4] | VAL norm to TPP-9809 (1 to 5 ratio) [4] | EC50 (pM), HUVEC repulsion assay, second experiment [5]
8 | TPP-15374 (antibody, human IgG1, lambda, V domains shown, human IgG1; also called IgG1, hit from panning; parental mAb) VH: EVQLLESGGGLVQPGGSLRLSCAASGFTFSSYEMNWVRQAPGKGLEWVSGISWNSGSIGYADSVKGRFTISRDNSKNTLYLQMNSLRAEDTAVYYCARSGYSSSWFDPDFDYWGQGTLVTVSS VL: QSVLTQPPSASGTPGQRVTISCTGSSSNIGAGYDVHWYQQLPGTAPKLLIYGNSNRPSGVPDRFSGSKSGTSASLAISGLRSEDEADYYCSSYAGSNPYVVFGGGTKLTVLG | 8.13 nM | 103% |  |  |  | 
9 | TPP-23337 (antibody, human IgG4 S228P, lambda, V domains shown) VH: EVQLLESGGGLVQPGGSLRLSCAASGFTFSSYAMSWVRQAPGKGLEWVSAIGYGGDTYYADSVKGRFTISRDNSKNTLYLQMNSLRAEDTAVYYCARRDDYTSRDAFDYWGQGTLVTVSS VL: not shown | 2.12 nM |  | 170 pM | 0.27 | 0.14 | 
10 | TPP-15370 (antibody, human IgG1, lambda, V domains shown, human IgG1; also called IgG1, hit from panning; parental mAb) VH: EVQLLESGGGLVQPGGSLRLSCAASGFTFSSYGMHWVRQAPGKGLEWVSAIGTGGDTYYADSVMGRFTISRDNSKNTLYLQMNSLRAEDTAVYYCARRDDYTSRDAFDVWGQGTLVTVSS VL: not shown | 4.33 nM | 111% | 800 pM | 0.67 | 0.54 | 
11 | TPP-23340 (antibody, human IgG4 S228P, lambda, V domains shown) VH: EVQLLESGGGLVQPGGSLRLSCAASGFTFSSYAMSWVRQAPGKGLEWVSAIGYGGDTYYADSVKGRFTISRDNSKNTLYLQMNSLRAEDTAVYYCARRDDYTSRDAFDYWGQGTLVTVSS VL: not shown |  |  | 180 pM | 0.4 |  | 
12 | TPP-23341 (antibody, human IgG4 S228P, lambda, V domains shown) VH: EVQLLESGGGLVQPGGSLRLSCAASGFTFSSYAMSWVRQAPGKGLEWVSAIGYGGDTYYADSVKGRFTISRDNSKNTLYLQMNSLRAEDTAVYYCARRDDYTSRDAFDYWGQGTLVTVSS VL: not shown |  |  | 113 pM | 0.38 | 0.18 | 
13 | TPP-23334 (antibody, human IgG4 S228P, lambda, V domains shown) VH: EVQLLESGGGLVQPGGSLRLSCAASGFTFSSYAMSWVRQAPGKGLEWVSAIGYGGDTYYADSVKGRFTISRDNSKNTLYLQMNSLRAEDTAVYYCARRDDYTSRDAFDYWGQGTLVTVSS VL: not shown | 2.24 nM |  | 120 pM | 0.28 | 0.11 | 
14 | TPP-23338 (antibody, human IgG4 S228P, lambda, V domains shown) VH: EVQLLESGGGLVQPGGSLRLSCAASGFTFSSYAMSWVRQAPGKGLEWVSAIGYGGDTYYADSVKGRFTISRDNSKNTLYLQMNSLRAEDTAVYYCARRDDYTSRDAFDYWGQGTLVTVSS VL: not shown |  |  |  | 0.33 |  | 
